{"source": "paper PMC9106292", "about": "(Science Advances, 2022)", "key": {"[1]": {"target": "ASC-mCherry (full-length human ASC, TEV protease cleavage site, mCherry, C-terminal hexa-histidine tag) (human, UniProt Q9ULZ3 1-195)", "sequence (Q9ULZ3 whole entry)": "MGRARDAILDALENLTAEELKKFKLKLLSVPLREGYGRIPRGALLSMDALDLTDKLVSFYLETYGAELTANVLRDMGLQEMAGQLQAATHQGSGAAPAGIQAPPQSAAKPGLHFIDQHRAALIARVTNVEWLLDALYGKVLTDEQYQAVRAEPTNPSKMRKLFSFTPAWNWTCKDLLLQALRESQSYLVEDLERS", "experiment": "negative-stain EM"}, "cryo-EM structure": {"target": "the molecule itself", "experiment": "cryo-EM structure"}, "negative-stain EM": {"target": "the molecule itself", "experiment": "negative-stain EM"}}, "data": [{"binder": "human NLRP3^PYD (residues 3 to 110; C108S) (domain or fragment) MASTRCKLARYLEDLEDVDLKKFKMHLEDYPPQKGCIPLPRGQTEKADHVDLATLMIDFNGEEKAWAMAVWIFAAINRRDLYEKAKRDEPKWGSDNARVSNPTVISQE", "values": [{"measurement": "binding result", "setting": "[1]", "value": "binds"}, {"measurement": "binding result", "setting": "cryo-EM structure", "value": "binds"}]}, {"binder": "NLRP3^PYD (residues 3 to 110; C108S) CAPS mutant A77V (domain or fragment) MASTRCKLARYLEDLEDVDLKKFKMHLEDYPPQKGCIPLPRGQTEKADHVDLATLMIDFNGEEKAWAMAVWIFAVINRRDLYEKAKRDEPKWGSDNARVSNPTVISQE", "values": [{"measurement": "binding result", "setting": "negative-stain EM", "value": "binds"}]}, {"binder": "NLRP3^PYD (residues 3 to 110; C108S) CAPS mutant D21H (domain or fragment) MASTRCKLARYLEDLEDVHLKKFKMHLEDYPPQKGCIPLPRGQTEKADHVDLATLMIDFNGEEKAWAMAVWIFAAINRRDLYEKAKRDEPKWGSDNARVSNPTVISQE", "values": [{"measurement": "binding result", "setting": "negative-stain EM", "value": "binds"}]}, {"binder": "NLRP3^PYD (residues 3 to 110; C108S) CAPS mutant H51R (domain or fragment) MASTRCKLARYLEDLEDVDLKKFKMHLEDYPPQKGCIPLPRGQTEKADRVDLATLMIDFNGEEKAWAMAVWIFAAINRRDLYEKAKRDEPKWGSDNARVSNPTVISQE", "values": [{"measurement": "binding result", "setting": "negative-stain EM", "value": "binds"}]}]}
